# US20230287120A1 (ALLOGENE THERAPEUTICS, published 2023)
# T1: human DLL3 on cells (endogenous on SHP-77, DMS 273, DMS 454; full length human DLL3 by lentivirus on HEK-293T) (human, UniProt Q9NYJ7 27-618)
# T1 construct: whole, on cells
# T1 sequence (looked up): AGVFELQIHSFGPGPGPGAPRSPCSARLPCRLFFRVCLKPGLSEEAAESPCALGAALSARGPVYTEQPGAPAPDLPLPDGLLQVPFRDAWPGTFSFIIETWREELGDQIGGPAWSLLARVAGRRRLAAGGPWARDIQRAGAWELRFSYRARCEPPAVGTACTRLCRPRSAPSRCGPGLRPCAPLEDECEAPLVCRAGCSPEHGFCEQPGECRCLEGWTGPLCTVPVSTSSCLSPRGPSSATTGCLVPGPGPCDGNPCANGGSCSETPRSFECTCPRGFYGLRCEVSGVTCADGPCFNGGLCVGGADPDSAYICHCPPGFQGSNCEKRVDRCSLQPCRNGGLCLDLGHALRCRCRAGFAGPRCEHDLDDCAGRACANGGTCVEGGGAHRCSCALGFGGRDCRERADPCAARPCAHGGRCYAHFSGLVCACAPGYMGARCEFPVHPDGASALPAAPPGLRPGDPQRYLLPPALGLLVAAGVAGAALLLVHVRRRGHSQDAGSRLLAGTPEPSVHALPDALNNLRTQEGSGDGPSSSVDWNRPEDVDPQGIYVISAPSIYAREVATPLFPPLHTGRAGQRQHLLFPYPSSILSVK
# T2: full length human DLL3 with N-terminal HA tag, expressed on CHO cells (human, UniProt Q9NYJ7 27-618)
# T2 construct: also called Human DLL3 complete ECD
# T2 sequence: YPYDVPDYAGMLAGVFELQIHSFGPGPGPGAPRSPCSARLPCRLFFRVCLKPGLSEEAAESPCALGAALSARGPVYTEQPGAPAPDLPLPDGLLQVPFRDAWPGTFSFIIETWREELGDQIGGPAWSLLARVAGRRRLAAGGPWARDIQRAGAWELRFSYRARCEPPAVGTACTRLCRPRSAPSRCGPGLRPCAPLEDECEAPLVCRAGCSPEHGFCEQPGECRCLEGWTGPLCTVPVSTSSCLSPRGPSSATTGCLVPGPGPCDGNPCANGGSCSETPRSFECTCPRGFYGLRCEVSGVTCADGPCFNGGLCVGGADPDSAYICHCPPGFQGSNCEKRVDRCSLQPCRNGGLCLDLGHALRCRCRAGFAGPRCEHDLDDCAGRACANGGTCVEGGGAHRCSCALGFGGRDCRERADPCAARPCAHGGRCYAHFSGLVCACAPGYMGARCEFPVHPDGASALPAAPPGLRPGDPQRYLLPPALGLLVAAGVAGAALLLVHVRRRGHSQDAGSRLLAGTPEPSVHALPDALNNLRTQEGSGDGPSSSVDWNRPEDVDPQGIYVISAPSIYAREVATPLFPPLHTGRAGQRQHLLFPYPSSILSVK
# T3: Flag tagged recombinant DLL3 (Adipogen) (Homo sapiens (Human), UniProt Q9NYJ7 27-492)
# T3 construct: Bought reagent; also called Flag-DLL3
# T3 sequence: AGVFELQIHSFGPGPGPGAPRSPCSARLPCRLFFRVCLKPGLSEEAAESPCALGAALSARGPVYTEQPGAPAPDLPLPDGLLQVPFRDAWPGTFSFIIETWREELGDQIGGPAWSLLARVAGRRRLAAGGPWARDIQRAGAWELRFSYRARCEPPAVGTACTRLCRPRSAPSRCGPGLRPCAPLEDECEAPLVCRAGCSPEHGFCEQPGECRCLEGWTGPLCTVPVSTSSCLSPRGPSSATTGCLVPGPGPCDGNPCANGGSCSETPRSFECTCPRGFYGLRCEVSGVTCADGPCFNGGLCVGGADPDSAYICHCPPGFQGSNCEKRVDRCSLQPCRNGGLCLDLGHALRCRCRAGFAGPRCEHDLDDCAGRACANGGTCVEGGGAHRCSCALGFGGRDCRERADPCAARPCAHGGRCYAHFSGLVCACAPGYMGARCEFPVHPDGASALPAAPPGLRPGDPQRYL
# Experiments:
# [1] = biological target: T1, human DLL3 on cells (endogenous on …); experiment: flow cytometry on DMS 273, DMS 454 and SHP-77 cells, 2 ug/ml antibody, PE anti-mouse IgG
# [2] = biological target: T2, full length human DLL3 with N-terminal …; experiment: flow cytometry on CHO cells with full length and truncated human DLL3; column Binds to DLL3 Domain
# Method: The samples were analyzed by flow cytometry. […] Signals from the PE channel are shown on the x-axis and counts are shown on the y-axis.
# [3] = biological target: T3, Flag tagged recombinant DLL3 (Adipogen); experiment: flow cytometry, primary T cells with the CAR, Flag tagged recombinant DLL3, PE anti-Flag
Binder,binding result [1],binding result [2],"Rec-DLL3+ gate, percent of live CD3+ cells [3] [%]"
"anti-DLL3 antibody 4E6 (antibody, V domains shown) VH: QVQLQESGPGLVKPSETLSLTCTVSSDSISSYYWSWIRQPPGKGLEWISYIYYSGISNYNPSLKSRVSISVDTSKNQFSLRLSSVTAADTAVYYCARISVAGFFFDNWGQGTLVTVSS VL: EIMLTQSPDTLSLSPGERATLSCRASQSVSSSYLAWYQQKPGQAPRLLIYGASSRAAGVPDRFSGSGSGTDFTLTISRLAPEDFVVYYCQQYGISPLTFGGGTKVEIK",binds,binds,–
"10G1-K R2S (other, member of group m46; also called 10G1-K-R2S anti-DLL3 CAR with safety switch, on primary T cells) CAR: GGGGSCPYSNPSLCGGGGSCPYSNPSLCGGGGSEVQLLESGGGLVQPGGSLRLSCAASGFTFSSYAMNWVRQAPGKGLEWVSTISGSGGSTYYADSVKGRFTISRDNSKNTLYLQMNSLRAEDTAVFYCAIDPEYYDILTGGDYWGQGTLVTVSSGGGGSGGGGSGGGGGSGGGGSDIQMTQSPSAMSASVGDRVTITCRASQGISNYLAWFQQKPGKVPKRLIYAASSLQSGVPSRFSGSGSGTEFTLTISSLQPEDFATYFCLQHDSFPLTFGGGTKVEIKTTTPAPRPPTPAPTIASQPLSLRPEACRPAAGGAVHTRGLDFACDIYIWAPLAGTCGVLLLSLVITKRGRKKLLYIFKQPFMRPVQTTQEEDGCSCRFPEEEEGGCELRVKFSRSADAPAYQQGQNQLYNELNLGRREEYDVLDKRRGRDPEMGGKPRRKNPQEGLYNELQKDKMAEAYSEIGMKGERRRGKGHDGLYQGLSTATKDTYDALHMQALPPR",–,–,39.3
"10G1-K RSR (other, member of group m46; also called 10G1-K RSR anti-DLL3 CAR with safety switch, on primary T cells) CAR: GGGGSCPYSNPSLCGGGGSEVQLLESGGGLVQPGGSLRLSCAASGFTFSSYAMNWVRQAPGKGLEWVSTISGSGGSTYYADSVKGRFTISRDNSKNTLYLQMNSLRAEDTAVFYCAIDPEYYDILTGGDYWGQGTLVTVSSGGGGSGGGGSGGGGGSGGGGSDIQMTQSPSAMSASVGDRVTITCRASQGISNYLAWFQQKPGKVPKRLIYAASSLQSGVPSRFSGSGSGTEFTLTISSLQPEDFATYFCLQHDSFPLTFGGGTKVEIKGGGGSCPYSNPSLCGGGGSTTTPAPRPPTPAPTIASQPLSLRPEACRPAAGGAVHTRGLDFACDIYIWAPLAGTCGVLLLSLVITKRGRKKLLYIFKQPFMRPVQTTQEEDGCSCRFPEEEEGGCELRVKFSRSADAPAYQQGQNQLYNELNLGRREEYDVLDKRRGRDPEMGGKPRRKNPQEGLYNELQKDKMAEAYSEIGMKGERRRGKGHDGLYQGLSTATKDTYDALHMQALPPR",–,–,42.7
"4H8 R2S (other, member of group m45; also called 4H8-R2S anti-DLL3 CAR with safety switch, on primary T cells) CAR: GGGGSCPYSNPSLCGGGGSCPYSNPSLCGGGGSQVQLQQSGPGLVKPSQTLSLTCAISGDSVSSNSATWNWIRQSPSRGLEWLGRTYYRSKWYDDYAVSVKSRITINPDTSKNHLSLHLNSVTPEDTAVYYCAGGGLVGAPDGFDVWGQGTMVTVSSGGGGSGGGGSGGGGSGGGGSQSVLTQPPSASGTPGQRVTISCSGSSSNIGSDPVNWYQQLPGTAPKLLIYSNNQRPSGVPDRFSGSKSGTSASLAISGLQSEDEADYYCSAWDDSLNGYVFGTGTKVTVLTTTPAPRPPTPAPTIASQPLSLRPEACRPAAGGAVHTRGLDFACDIYIWAPLAGTCGVLLLSLVITKRGRKKLLYIFKQPFMRPVQTTQEEDGCSCRFPEEEEGGCELRVKFSRSADAPAYQQGQNQLYNELNLGRREEYDVLDKRRGRDPEMGGKPRRKNPQEGLYNELQKDKMAEAYSEIGMKGERRRGKGHDGLYQGLSTATKDTYDALHMQALPPR",–,–,58.6

# Next, values leading:
binding result [1],binding result [2],"Rec-DLL3+ gate, percent of live CD3+ cells [3] [%]",Binder
binds,binds,–,"anti-DLL3 antibody 10G1-K (antibody, V domains shown) VH: EVQLLESGGGLVQPGGSLRLSCAASGFTFSSYAMNWVRQAPGKGLEWVSTISGSGGSTYYADSVKGRFTISRDNSKNTLYLQMNSLRAEDTAVFYCAIDPEYYDILTGGDYWGQGTLVTVSS VL: DIQMTQSPSAMSASVGDRVTITCRASQGISNYLAWFQQKPGKVPKRLIYAASSLQSGVPSRFSGSGSGTEFTLTISSLQPEDFATYFCLQHDSFPLTFGGGTKVEIK"
binds,–,–,"3E4 (antibody, V domains shown, also called anti-DLL3 antibody 3E4 (purified, mouse IgG2A backbone)) VH: QVQLQQWGAGLLKPSETLSLTCAVYGGSFSGYYWSWIRQPPGKGLEWIGEIIHSGSSNYNPSLKSRVSISVDTSKNQFSLKLSSVTAADTAVYYCSRGEYGSGSRFDYWGQGTLVTVSS VL: AIQMTQSPSSLSASVGDRVAITCRASQGIRDDLGWYQQKPGKAPKLLIYAASSLQSGVPSRFSGSRSDTDFTLTISSLQPEDFATYYCLQDYDYPLTFGGGTKVEIK"
